The supplement of paper PMC10567573
± gives the standard deviation.

Assay: protein stability index of a GFP-peptide fusion (GPS, HEK-293T) (PSI 1-6); higher = more stable
[1] = treatment: DMSO, c terminus: a fixed tail appended
[2] = treatment: MLN4924 1 uM, 8 h, c terminus: a fixed tail appended
[3] = treatment: DMSO, c terminus: native
[4] = treatment: MLN4924 1 uM, 8 h, c terminus: native
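Note: 24-mer peptide tiles fused after GFP, lentivirally expressed, FACS-sorted into six equal bins by GFP/DsRed ratio, decoded by Illumina sequencing, PSI is the read-weighted mean bin number.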

Sequence | protein stability index [1] | protein stability index [2] | protein stability index [3] | protein stability index [4]
TSTPEDKESGQEGVDSMAEEGTSD [SMARCE1] | 5.65 ± 0.25 | 5.51 ± 0.33 | – | –
TVEKDESHAGKVVLRSWYEKNKHI [FAM50A] | 3.74 ± 0.33 | 3.87 ± 0.18 | – | –
TVFCLVVIFALCWFPLHLSRILKK [EDNRA] | 2.41 ± 0.61 | 2.42 ± 1.3 | – | –
TVGVYEAAKLLNVDPDNVVLCLLA [GADD45A] | 2.26 ± 0.17 | 2.4 ± 0.22 | – | –
TVTSLQVPVLKPMDLMVEVSPRRI [PPP2R2C] | 2.52 ± 0.18 | 2.65 ± 0.32 | – | –
TWMLEVCEEQKCEEEVFPLAMNYL [CCND2] | 2.84 ± 0.23 | 2.89 ± 0.3 | – | –
TYAVRKLDNTKFRSHEGETAYIRV [SRSF1] | 2.46 ± 0.39 | 2.38 ± 0.3 | – | –
VAERKYTQEQARKEFQQVFIPECN [SMOC2] | 4.38 ± 0.19 | 4.41 ± 0.23 | – | –
VCQRMLNQGFLKVERYHNLCQKQV [FBXO28] | 2.18 ± 0.36 | 2.37 ± 0.27 | – | –
VCYFTNWAQYRQGEARFLPKDLDP [CHIT1] | 2.32 ± 0.14 | 2.34 ± 0.17 | – | –
VEEILDRENKRMADSLASKVTRLK [BET1L] | 4.31 ± 0.4 | 4.52 ± 0.23 | – | –
VEFNHTGELLATGDKGGRVVIFQR [PPP2R2C] | 2.54 ± 0.59 | 2.85 ± 0.44 | – | –
VEGAMHIQECVPEDLELKKKIFAQ [CRYL1] | 4.74 ± 0.45 | 4.27 ± 0.2 | – | –
VEKLKQMQEFFGLKVTGKPDAETL [MMP1] | 3.63 ± 0.23 | 3.83 ± 0.16 | – | –
VELARYLVDVRQEQLQGFNTRVRE [DNAAF3] | 2.54 ± 0.36 | 2.77 ± 0.13 | – | –
VEMESEEQIAERKRKMVSWEASSL [KMT2E] | 3.67 ± 0.22 | 3.87 ± 0.73 | – | –
VENKEKDSNMPHFQTLQAIVSHFQ [CEP70] | 2.89 ± 0.27 | 3.18 ± 0.36 | – | –
VFWPQLPNGLEAAYEFADRDEVRF [MMP1] | 2.86 ± 0.26 | 3.1 ± 0.3 | – | –
VGGATLAQTTSEAAMEGATLDQTT [HDAC6] | 5.44 ± 0.11 | 5.39 ± 0.26 | – | –
VGWWALLALVTLLSFATRFHRLDE [POMT2] | 3.42 ± 0.39 | 2.98 ± 0.39 | – | –
VHFSEAIEKFIREPSLKATMGLAG [ALG2] | 2.33 ± 0.27 | 2.43 ± 0.24 | – | –
VHIETFTTRHGEVGSALHRESFTS [C10orf62] | 2.57 ± 0.35 | 2.47 ± 0.58 | – | –

Sequence | protein stability index [1] | protein stability index [2] | protein stability index [3] | protein stability index [4]
VHNIVIFMRTSVKISYIGLMTQSS [TMEM106C] | 2.83 ± 0.38 | 3.03 ± 0.32 | – | –
VIDLAESLVADNCVTLVWRMPDED [FSD1] | 2.35 ± 0.33 | 2.79 ± 0.27 | – | –
VIKISYSTPQGKGEVVKIPSRVHG [PWWP2B] | 2.5 ± 0.2 | 2.79 ± 0.3 | – | –
VISLLNEPNTFSPANVDASVMFRK [UBE2R2] | 2.79 ± 0.31 | 3.04 ± 0.2 | – | –
VITYILLSGASPFLGETKQETLTN [DAPK3] | 2.75 ± 0.26 | 2.86 ± 0.4 | – | –
VIYCLGGYDGLNILNSVEKYDPHT [KLHL12] | 2.39 ± 0.54 | 2.18 ± 0.39 | – | –
VKKSCWTEEEDRIICEAHKVLGNR [MYBL2] | 3.33 ± 0.52 | 3.58 ± 0.34 | – | –
VLDCRPYLAFAASNVRGSLNVNLN [DUSP5] | 2.19 ± 0.34 | 1.99 ± 0.39 | – | –
VLDELTLARADLEMQIENLKEELA [KRT17] | 3.04 ± 0.29 | 3.1 ± 0.37 | – | –
VLDLEARGYIKPHVDSIKFCGATI [ALKBH7] | 2.14 ± 0.26 | 2.15 ± 0.42 | – | –
VLEQFLTILPQEIQSRVQELHPES [ZNF263] | 2.56 ± 0.31 | 2.53 ± 0.39 | – | –
VLGEDVIVNDELYLNGASVLPHKS [GMPPB] | 4.23 ± 0.28 | 4.31 ± 0.18 | – | –
VLGIQVKCFHEIITIGYRVYHSYD [CDS1] | 3.25 ± 0.25 | 3.04 ± 0.17 | – | –
VLLQTSPYHVDSLLQLSDACRFQE [TCF25] | 2.22 ± 0.41 | 2.41 ± 0.56 | – | –
VNAVRKLLIEGRSVNEHTEEGESL [ANKRD17] | 4.73 ± 0.24 | 4.79 ± 0.35 | – | –
VPARDGTSCKLTDLRGVCVSGKCE [ADAMTSL2] | 3.95 ± 0.23 | 3.92 ± 0.29 | – | –
VPPKDSAPKDSAPQDLAPQVSAHH [TBC1D10A] | 5.47 ± 0.19 | 5.4 ± 0.18 | – | –
VQFVFDAVTDVIIKNNLKDCGLF [GNAI1] | – | – | 2.68 ± 0.81 | 2.61 ± 0.73
VQLQRIPLSAVYRICLGKFTFPGM [TPRG1] | 2.65 ± 0.69 | 2.21 ± 0.43 | – | –
VQYGAGVACSETAPDLVLNAEMVQ [LOXL2] | 4.108 ± 0.007 | 4.47 ± 0.25 | – | –
VRLQERTSGGLLSEAPNEKLFFVD [NOP53] | 3.5 ± 0.32 | 3.34 ± 0.33 | – | –
VRPGTPPDFILKVVIDKHPVRFFV [CTDNEP1] | 2.95 ± 0.49 | 2.92 ± 0.42 | – | –

Sequence | protein stability index [1] | protein stability index [2] | protein stability index [3] | protein stability index [4]
VRYNRVGILRRILRTLRDFPAEER [ANKRD9] | 2.4 ± 0.16 | 2.6 ± 0.56 | – | –
VSGDLTKEDIDLIDILWRQDIDLG [NFE2L1] | 3.02 ± 0.78 | 3.58 ± 0.61 | – | –
VSGFCRSPPVMVAGGRVFVLPCIQ [FLOT1] | 2.43 ± 0.38 | 2.45 ± 0.5 | – | –
VSGINHDVTSGDHGDYFRLLLPGI [CPN1] | 2.46 ± 0.28 | 2.23 ± 0.38 | – | –
VSTMRCKTRQKSEKQMEEKRRANQ [PPEF2] | 4.41 ± 0.7 | 4.79 ± 0.24 | – | –
VTAEVDLFGDAFAASPGEAPAASE [SNAP91] | 5.02 ± 0.26 | 5.02 ± 0.16 | – | –
VTFKLDDGAISAHKPLLICSCEWM [RHOBTB1] | 3.08 ± 0.33 | 2.56 ± 0.62 | – | –
VTKLCVQFLNDQISVQNYKQVCKI [KLHL14] | 2.76 ± 0.46 | 2.42 ± 0.56 | – | –
VTLNFNVPGEFKQDVTVVGSAGRL [GFOD1] | 2.23 ± 0.74 | 2.15 ± 0.37 | – | –
VTSIHKYMVRRYFNKPSRVPAPEA [MYORG] | 2.42 ± 0.14 | 2.38 ± 0.3 | – | –
VVEEVRRRATSGGKWPQVLFFPEG [LPCAT4] | 2.75 ± 0.31 | 3.24 ± 0.26 | – | –
VVHWVQSIGLRDYAGNLHESGVHG [PPFIA4] | 2.56 ± 0.27 | 1.93 ± 0.36 | – | –
VVKLENGEIETIARFGSGPCKTRD [APMAP] | 3.77 ± 0.16 | 3.72 ± 0.31 | – | –
VVQGPDGRLELKPLLLRLPRICQR [FANCE] | 2.35 ± 0.33 | 2.45 ± 0.15 | – | –
VYHSYDLPWFRTLSWYFLLCVNYF [CDS1] | 2.85 ± 0.42 | 2.63 ± 0.51 | – | –
VYMFKNGSGDSGDSSEEESHRVVL [LYSMD4] | 3.49 ± 0.32 | 3.33 ± 0.38 | – | –
WDRNRRRGGGAAGAGGGGSGAGGG [KLHDC10] | 5.16 ± 0.5 | 5.3 ± 0.2 | – | –
WEEEEDHEKERPEHKSLESLADGG [FANCE] | 5.46 ± 0.34 | 5.53 ± 0.19 | – | –
WEPRRDMWVRFRAFEAARDLDACA [ZSWIM9] | 2.79 ± 0.34 | 2.72 ± 0.2 | – | –
WFLVPISSVICNDITAYLFGFFFG [CDS1] | 2.75 ± 0.036 | 3.16 ± 1 | – | –
WLISEEEKTQKNQCWKSLFIDTYS [FBXO3] | 2.16 ± 0.3 | 2.45 ± 0.33 | – | –
WQLFLAHNIPLETIIPILQHLKYK [INTS3] | 2.83 ± 0.44 | 2.63 ± 0.59 | – | –

Sequence | protein stability index [1] | protein stability index [2] | protein stability index [3] | protein stability index [4]
WRNIILMSLLHLGALYGITLIPTC [SCD] | 2.83 ± 0.19 | 2.9 ± 0.42 | – | –
WSPSPPATPEQGLSAFYLSYFDML [SPDEF] | 2.14 ± 0.45 | 2.33 ± 0.48 | – | –
WTTEQQQRFHEICSNLVKTRRRAV [ARL6IP1] | 2.8 ± 0.2 | 3.07 ± 0.41 | – | –
WYRPMYKAFRSDSSFNFFVFFFIF [SCAMP3] | 2.94 ± 0.34 | 2.86 ± 0.54 | – | –
YAVLAAEPELQVGIDIMKTSFPGR [AASDHPPT] | 2.61 ± 0.28 | 2.73 ± 0.4 | – | –
YCKTSDGRVVPESQCQMETKPLAI [ADAMTSL2] | 3.94 ± 0.33 | 4.32 ± 0.11 | – | –
YCLTCEVPTCSMCKVFGIHKACEV [TRIM63] | 2.69 ± 0.45 | 2.8 ± 0.33 | – | –
YEAQDGRGPDNALLEATGGAAGRS [KCTD10] | 5.37 ± 0.34 | 5.41 ± 0.25 | – | –
YENCLQALADVEVKYIVERTMLDF [NLN] | 2.08 ± 0.28 | 2.22 ± 0.51 | – | –
YFGSFATVGLLWFAHHSLFLHVRK [TMEM175] | 3.17 ± 0.56 | 3.15 ± 0.42 | – | –
YHRETEGEEQAQLLHVSSPNLASD [KCNA1] | 5.16 ± 0.3 | 5.21 ± 0.27 | – | –
YINFRHLYKQRRRRYGQKKKKIH [HACD3] | – | – | 2.12 ± 0.29 | 2.74 ± 0.55
YKCLECGKAFSQNSGLINHQRIHT [ZNF24] | 4.95 ± 0.23 | 4.57 ± 0.26 | – | –
YLLDYPNNLLSAPPPDVTQLTPPS [ANKRD17] | 3.23 ± 0.14 | 3.44 ± 0.2 | – | –
YLNGASVLPHKSIGESVPEPRIIM [GMPPB] | 2.79 ± 0.35 | 2.84 ± 0.34 | – | –
YNKPTDDIVLMAQALEKIFLQKVA [BRD3] | 2.45 ± 0.54 | 2.06 ± 0.44 | – | –
YPEDSSWAAKAPGASSREEPPEEP [SPDEF] | 4.21 ± 0.43 | 4.64 ± 0.51 | – | –
YPIIFVYYLRKGKKINSNQLENEQ [SPANXN3] | 2.37 ± 0.33 | 2.14 ± 0.26 | – | –
YQILTLEKDQEQVVMNLDSRLLIF [GMCL1] | 2.77 ± 0.67 | 2.66 ± 0.7 | – | –
YQLCHALRFLHENQLTHTDLKPEN [CLK3] | 4.62 ± 0.23 | 4.76 ± 0.37 | – | –
YQRNLPRPGQAPIGNPPVGPIGGM [ZNF207] | 2.87 ± 0.32 | 3.31 ± 0.41 | – | –
YQSGGRIRRPVNVPIDIFSEEIRF [KCNA3] | 2.49 ± 0.43 | 3.11 ± 0.37 | – | –
